Reference: paper PMC6180082, “Structural Analysis of an Epitope Candidate of Triosephosphate Isomerase in Opisthorchis viverrini” (Scientific Reports, 2018)

Molecular target: the molecule itself
Experiment: crystal structure; OvTIM wild-type at ~80 mg/ml, hanging-drop vapor diffusion, 0.3 M magnesium chloride hexahydrate, 0.1 M Tris pH 8.5, 22% PEG 3350, 20 °C; molecular replacement; two homodimers in the asymmetric unit

B1: Triosephosphate isomerase from Opisthorchis viverrini (OvTIM), wild-type (enzyme)
chain: MPTDRKFFVGGNWKMNGSKKENDKLIEMLTHAKIDPNTEVLVAPPSLYLPSVREKLDKRFHVAAQNCYKVPSGAFTGEVSPAMLKDVGCDWVILGHSERRHILMETDQLVGEKTNHAISAGVNVIACIGEKLEEREAGKTEEVCFRQMEAIRKNLSSADMWNHIVIAYEPVWAIGTGKTATEQQAQEVHLAVRKWMEEKVSPAVANSIRIIYGGSVTAANCRTLAKQPDVDGFLVGGASLKPDFIEICNANA
notes: Triosephosphate isomerase (EC 5.3.1.1) of Opisthorchis viverrini; cDNA synthesized and cloned NdeI/XhoI into pET17b with a 6 His-tag and thrombin site; residues 175-179 have no clear electron density in the crystal; a thrombin site lies between tag and protein; source: E. coli BL21 (DE3) pLysS, purified (HisTrap HP, HiTrap Q HP, Superdex-200 SEC)
- binding result: binds
